Measured values: the supplement of paper PMC7125110
± gives the standard error. This sample holds only a part of the variants without activity.

B1: glmS ribozyme (parent)
chain: AUAAAAGCGCCAGAACUACAGAAAUGUAGUUGACGAGGAGGAGGUUUAUCGAAUUUUCGGCGGAUGCCUCCAAA

Experiments:
Details in all cases: with glucosamine-6-phosphate
glucosamine-6-phosphate [1] = variants of: B1; assay: self-cleavage kobs at 160 uM GlcN6P; higher = faster cleavage; RNA array
Outline: (§1)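 The measurements used barcoded ribozyme variants on sequenced MiSeq chips, transcribed in situ by E. coli RNA polymerase and tracked at 37 °C with a hybridised Cy3 probe. Glucosamine-6-phosphate, 40 μM to 10 mM in HEPES/KCl/Mg(OAc)2 buffer, was flowed in while tiles were imaged over ~14 h. Baseline-normalised signals, also normalised to non-cleaving reference variants, gave per-tile medians that were fit to one- or two-exponential decays for kobs. kcat and KM resulted from weighted Michaelis–Menten fits across concentrations.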

glucosamine-6-phosphate [2] = variants of: B1; assay: self-cleavage kobs at 640 uM GlcN6P; higher = faster cleavage; RNA array
Outline: as §1

glucosamine-6-phosphate [3] = variants of: B1; assay: self-cleavage kobs at 2500 uM GlcN6P; higher = faster cleavage; RNA array
Outline: as §1

glucosamine-6-phosphate [4] = variants of: B1; assay: self-cleavage kobs at 10000 uM GlcN6P; higher = faster cleavage; RNA array
Outline: as §1

| Variant | self-cleavage kobs at 160 uM GlcN6P (glucosamine-6-phosphate [1]) [s⁻¹] | self-cleavage kobs at 640 uM GlcN6P (glucosamine-6-phosphate [2]) [s⁻¹] | self-cleavage kobs at 2500 uM GlcN6P (glucosamine-6-phosphate [3]) [s⁻¹] | self-cleavage kobs at 10000 uM GlcN6P (glucosamine-6-phosphate [4]) [s⁻¹] |
| --- | --- | --- | --- | --- |
| A12C G35C | < 1e-05 | < 1e-05 | < 1e-05 | – |
| G9A G41A | < 1e-05 | < 1e-05 | < 1e-05 | < 1e-05 |
| A12G C34U G41A | < 1e-05 | < 1e-05 | – | – |
| G13C A42G G51C U56C C67A | < 1e-05 | – | < 1e-05 | – |
| G13U A33G G40U | < 1e-05 | – | – | – |
| G9U A12C C67U | < 1e-05 | < 1e-05 | < 1e-05 | < 1e-05 |
| G13A A33G G63C | < 1e-05 | – | < 1e-05 | – |
| C10G G35C | < 1e-05 | < 1e-05 | – | < 1e-05 |
| C10G G35U | < 1e-05 | < 1e-05 | < 1e-05 | – |
| C8U G35A U49C A64C C71A | < 1e-05 | – | – | – |
| G9A C34A | < 1e-05 | < 1e-05 | < 1e-05 | < 1e-05 |
| C11U A42U | < 1e-05 | < 1e-05 | < 1e-05 | – |
| C10U G44U C61A | < 1e-05 | < 1e-05 | < 1e-05 | – |
| G9U A48U | < 1e-05 | – | < 1e-05 | < 1e-05 |
| G9U C19A | < 1e-05 | – | – | – |
| G13U G38U U65G | < 1e-05 | – | – | – |
| C10U C34U G38C A39U | < 1e-05 | – | – | – |
| A12U U69C | 0.000492 ± 0.00017 | 0.00151 ± 0.00069 | 0.00211 ± 0.00066 | – |
| A12C A39G C70U | 0.000758 ± 0.00028 | – | – | – |
| C11G A64U U65A | < 1e-05 | < 1e-05 | < 1e-05 | – |
| G9A C11G A12G A15U C16A U30C G32A A48G G59U G60U | < 1e-05 | – | < 1e-05 | – |
| A12C G63C G66C | < 1e-05 | < 1e-05 | – | – |
| G9A C10A | < 1e-05 | < 1e-05 | < 1e-05 | < 1e-05 |
| C11G G37C G40A U45A C70U | < 1e-05 | – | – | – |
| C11U U31C A39U A52C A64G | < 1e-05 | – | < 1e-05 | – |
| G9U A12G U54G | < 1e-05 | – | – | – |

| Variant | self-cleavage kobs at 160 uM GlcN6P (glucosamine-6-phosphate [1]) [s⁻¹] | self-cleavage kobs at 640 uM GlcN6P (glucosamine-6-phosphate [2]) [s⁻¹] | self-cleavage kobs at 2500 uM GlcN6P (glucosamine-6-phosphate [3]) [s⁻¹] | self-cleavage kobs at 10000 uM GlcN6P (glucosamine-6-phosphate [4]) [s⁻¹] |
| --- | --- | --- | --- | --- |
| C10G G43U C50A | < 1e-05 | – | < 1e-05 | – |
| C8U U55A | < 1e-05 | < 1e-05 | < 1e-05 | – |
| A12C C16U A53G U65G | 9.62e-05 ± 2.4e-05 | 0.000453 ± 9.1e-05 | 0.000899 ± 0.00019 | – |
| A12G G41U C50U | < 1e-05 | < 1e-05 | < 1e-05 | – |
| A12C A15G C50G U56G C67G | 0.000121 ± 2.8e-05 | 0.000141 ± 3.7e-05 | 0.000133 ± 3.1e-05 | 4.37e-05 ± 1.2e-05 |
| G13A G41U U49A G51C | < 1e-05 | – | – | – |
| A14C G40U G43C C50U | < 1e-05 | – | < 1e-05 | – |
| G9A A36G C67U | < 1e-05 | – | – | – |
| C10A G35C G51U | < 1e-05 | < 1e-05 | < 1e-05 | – |
| G9U A12G | < 1e-05 | < 1e-05 | < 1e-05 | < 1e-05 |
| C11U A14U A64C | < 1e-05 | – | – | – |
| C10A C34U U55G | < 1e-05 | – | < 1e-05 | – |
| G9U C11U G38C | < 1e-05 | < 1e-05 | < 1e-05 | – |
| A14C A53U C67G | 3.21e-05 ± 1.4e-05 | 0.000135 ± 2.7e-05 | 0.000238 ± 4.6e-05 | – |
| C10G C11U G13C A36C G43C | < 1e-05 | < 1e-05 | < 1e-05 | – |
| A12C G41C U49A | < 1e-05 | < 1e-05 | < 1e-05 | – |
| G13U A33U U57C | < 1e-05 | < 1e-05 | – | – |
| G9U G37U C50U C67U | < 1e-05 | – | – | – |
| C11A A12U | 7.68e-05 ± 1.8e-05 | 0.000339 ± 6e-05 | 0.000539 ± 7.7e-05 | 0.00156 ± 0.00028 |
| C11G G32A G59C | < 1e-05 | < 1e-05 | – | – |
| A12G U56C G60A | < 1e-05 | < 1e-05 | < 1e-05 | – |
| C10U G62C | < 1e-05 | – | < 1e-05 | < 1e-05 |
| A12U U45G U46G | 0.000419 ± 0.00015 | – | 0.00499 ± 0.0017 | – |
| C10G A48C G51U U65C | < 1e-05 | < 1e-05 | < 1e-05 | – |
| C11G C67U | < 1e-05 | < 1e-05 | < 1e-05 | – |
